What was measured:
[1] = molecular target: the molecule itself; assay: native gel or EMSA; oligomers read from shifted bands of protein on DNA: 10 nM digoxigenin-labelled 188 bp katB promoter probe, various amounts of His6-OxyR variant, 4 mM Tris-HCl pH 8.0, 40 mM NaCl, 4 mM MgCl2, 4% glycerol, poly(dI-dC), room temperature 15 min, 7% native polyacrylamide gel
[2] = molecular target: the molecule itself; assay: crystal structure; SoOxyR RD C203S crystallised at 20°C by hanging-drop vapor diffusion, 4.0 M ammonium acetate, 0.1 M Bis-Tris propane pH 7.0; six molecules in the asymmetric unit; interfaces listed with PDBePISA

B1: OxyR_(R288E+F287A) (SoOxyR double point mutant) (natural protein, Shewanella oneidensis, UniProt Q8EHA1 1-304, looked up)
chain: MKNLPSLKNLYYLVNLHQEQNFNRAAKVCFVSQSTLSSGIQNLEEQLGHQLIERDHKSFMFTAIGEEVVQRSRKILTDVDDLVELVKNQGEPMTGDIRLGCIPTIAPFLLSRVVKQCQQAYPEMSLLLKEDTTERLLDALGKGELDLLILALPVDTSGYHSMKVGIDPFKMVIHKDLVGGIHQPIDYQTLPDESIFLLQSEHCITGHAITACQLGDSAKVNPFAATSLHTLVQMVNSKLGTTFLPQMAIDAGILNDTDLVVMTPPGEAPYRDIGLVWRQTTSRILTAETLGLLIQKLLTNETAQ
notes: OxyR of Shewanella oneidensis, the whole protein with two point mutations in helix α10; also called SoOxyR_(R288E-F287A); not shown: His6, N-terminal, kept
**Q.** B1 was tested. Which “stoichiometry N” value [1] did it give?
**A.** 4

B2: SoOxyR RD_(C203S) (regulatory domain of Shewanella oneidensis OxyR, residues 91 to 304, C203S) (domain or fragment, UniProt Q8EHA1 91-304, looked up)
chain: EPMTGDIRLGCIPTIAPFLLSRVVKQCQQAYPEMSLLLKEDTTERLLDALGKGELDLLILALPVDTSGYHSMKVGIDPFKMVIHKDLVGGIHQPIDYQTLPDESIFLLQSEHSITGHAITACQLGDSAKVNPFAATSLHTLVQMVNSKLGTTFLPQMAIDAGILNDTDLVVMTPPGEAPYRDIGLVWRQTTSRILTFRTLGLLIQKLLTNETAQ
notes: OxyR of Shewanella oneidensis, regulatory domain (RD), residues 91 to 304 of the full-length protein, locked in the reduced form by C203S; Six molecules in the crystallographic asymmetric unit; also called RD_(C203S) of SoOxyR; SoOxyR^C203S RD
**Q.** Does B2 bind [2]?
**A.** binds

B3: OxyR^Δ290− (SoOxyR truncation lacking all residues after 290) (domain or fragment, Shewanella oneidensis, UniProt Q8EHA1 1-290, looked up)
chain: MKNLPSLKNLYYLVNLHQEQNFNRAAKVCFVSQSTLSSGIQNLEEQLGHQLIERDHKSFMFTAIGEEVVQRSRKILTDVDDLVELVKNQGEPMTGDIRLGCIPTIAPFLLSRVVKQCQQAYPEMSLLLKEDTTERLLDALGKGELDLLILALPVDTSGYHSMKVGIDPFKMVIHKDLVGGIHQPIDYQTLPDESIFLLQSEHCITGHAITACQLGDSAKVNPFAATSLHTLVQMVNSKLGTTFLPQMAIDAGILNDTDLVVMTPPGEAPYRDIGLVWRQTTSRILTFRTL
notes: OxyR of Shewanella oneidensis, C-terminal truncation; the series is defined by SoOxyR^Δ283− (truncation lacking all residues after R283); also called SoOxyR^Δ290−; not shown: His6, N-terminal, kept
**Q.** Which “stoichiometry N” value [1] does the source give for B3 here?
**A.** 4

B4: OxyR^Δ286− (SoOxyR truncation lacking all residues after 286) (domain or fragment, Shewanella oneidensis, UniProt Q8EHA1 1-286, looked up)
chain: MKNLPSLKNLYYLVNLHQEQNFNRAAKVCFVSQSTLSSGIQNLEEQLGHQLIERDHKSFMFTAIGEEVVQRSRKILTDVDDLVELVKNQGEPMTGDIRLGCIPTIAPFLLSRVVKQCQQAYPEMSLLLKEDTTERLLDALGKGELDLLILALPVDTSGYHSMKVGIDPFKMVIHKDLVGGIHQPIDYQTLPDESIFLLQSEHCITGHAITACQLGDSAKVNPFAATSLHTLVQMVNSKLGTTFLPQMAIDAGILNDTDLVVMTPPGEAPYRDIGLVWRQTTSRILT
notes: OxyR of Shewanella oneidensis, C-terminal truncation; the series is defined by SoOxyR^Δ283− (truncation lacking all residues after R283); also called SoOxyR^Δ286−; not shown: His6, N-terminal, kept
**Q.** Does B4 bind [1]?
**A.** binds
